Experimental data published in patent publication US20230087785A1, “Leucine-Rich Repeat Kinase 2 Allosteric Modulators” (VIB VZW, priority 2020, published 2023).

Key:
LRRK2(G2019S) = molecular target: T1, LRRK2(G2019S) (Homo sapiens, UniProt Q5S007, G2019S/M2397T/R50H); test: In cellulo phospho-Rab / LRRK2 autophosphorylation assay in HEK293T cells; assay type: cell-based; parameters: key to Functional Group (see FIG. 2d): Group 1: group 1: Nbs that inhibit both LRRK2 autophosphorylation and Rab10 phosphorylation in cells; Group 2: group 2: Nbs that inhibit only Rab10 phosphorylation; Group 3: group 3: Nbs that activate LRRK2 kinase activity; Group 4: group 4: Nbs that have no consistent/clear effect on LRRK2 kinase activity; details: for LRRK2 autophosphorylation at position S1292 / influence on LRRK2 kinase activity compared to the controls / Rab10 phosphorylation at position T72: HEK 293T cells co-expressing LRRK2(G2019S), Rab29 and Nb-GFP; for influence on LRRK2 kinase activity compared to the controls: Western blot; for Functional Group (see FIG. 2d): classification by effect on in cellulo LRRK2(G2019S) kinase activity; for Rab10 phosphorylation at position T72: endogenous Rab10
T1 construct: SF tag (FLAG + Twin-Strep); expressed in transfected cells; host or cells: HEK 293T
Experimental: (FIGS. 2A-2C) LRRK2(G2019S) and its effector Rab29 were overexpressed together with GFP-fused Nbs (“Fluobody”) in HEK293T cells. A negative control, where no Nb is overexpressed (“No Nb”) is also included. […] In rows labeled “pLRRK2”, LRRK2 pS1292 levels are determined by Western Blot using a site-specific anti-pLRRK2(pS1292) antibody (Abcam, ab203181) (shown at different times of development). In the rows labeled “pRAB10”, endogenous pT72-Rab10 levels are determined by Western Blot using the MJFF/Abcam antibody MJF-R21 (Abcam, ab230261) (shown at different times of development). The three lower rows contain controls of LRRK2 (rat anti-LRRK2, 24D8), Fluobody (rat anti-GFP) and Rab10 (rabbit anti-Rab10) expression levels. (FIG. 2D) Based on the results of panels (FIGS. 2A-2C) the Nbs can be divided into 4 functional groups, with group 1: Nbs that inhibit both LRRK2 autophosphorylation and Rab10 phosphorylation in cells; group 2: Nbs that inhibit only Rab10 phosphorylation; group 3: Nbs that activate LRRK2 kinase activity; group 4: Nbs that have no consistent/clear effect on LRRK2 kinase activity.
To assess the influence of the Nbs on LRRK2 kinase activity we monitored two physiologically and disease relevant activities of LRRK2: phosphorylation of the endogenous substrate Rab10 at position T72 and LRRK2 autophosphorylation at position S1292 [25-30]. […] In our cellular assay we thus co-expressed LRRK2(G2019S), Rab29 and the different Nb-GFP fusions in HEK 293T cells (FIG. 2a-c).
HEK 293T cells were cultured in DMEM (supplemented with 10% Fetal Bovine Serum, […] L-Glutamine and 0.5% Pen/Strep). For the assay, the cells were seeded onto six-well plates and transfected at a confluency of 50-70% with the individual Nb-GFP expression constructs, SF-tagged LRRK2(G2019S) and FLAG-HA Rab29 using a self-made polyethylenimine (PEI)-based transfection reagent. After 48 hrs cells were lysed in lysis buffer [30 mM Tris-HCL (pH7.4), 150 mM NaCl, 0.5% Nonident-P40, complete protease inhibitor cocktail, phosphatase inhibitor cocktail II & III (all Sigma)]. Lysates were cleared by centrifugation at 10,000×g and adjusted to a protein concentration of 1 μg/μl in 1× Laemmli Buffer. Samples were subsequently subjected to SDS PAGE and Western Blot analysis to determine LRRK2 pS1292 and Rab10 T72 phosphorylation levels, as described below. Total LRRK2 and Rab10 levels were determined as a reference.
For western blot analysis, protein samples were separated by SDS-PAGE using NuPAGE 10% Bis-Tris gels (Invitrogen) and transferred onto PVDF membranes (Thermo Fisher). To allow simultaneous probing for LRRK2 on the one hand and Rab and the Nb-GFP fusions on the other hand, membranes were cut horizontally at the 140 kDa MW marker band. After blocking non-specific binding sites with 5% non-fat dry milk in TBST (1 h, RT) (25 mM Tris, pH 7.4, 150 mM NaCl, 0.1% Tween-20), membranes were incubated overnight at 4° C. with primary antibodies at dilutions specified below. Phospho-specific antibodies were diluted in TBST/5% BSA (Roth GmbH). Non-phospho-specific antibodies were diluted in TBST/5% non-fat dry milk powder (BioRad). Phospho-Rab10 levels were determined by the site-specific rabbit monoclonal antibody anti-pRAB10([…]) (Abcam, ab230261) and LRRK2 autophosphorylation was determined by the site-specific rabbit monoclonal antibody anti-pLRRK2(pS1292) (Abcam, ab203181), both at a dilution of 1:2,000. Total LRRK2 levels were determined by the in-house rat monoclonal antibody anti-pan-LRRK2 (clone 24D8; 1:10,000). Total Rab10 levels were determined by the rabbit monoclonal antibody anti-RAB10/ERP13424 (Abcam, ab181367) at a dilution of 1:5,000. Nb-GFP fusion proteins were detected using the rat monoclonal antibody anti-GFP (clone 3H9, ChromoTec) at a dilution of 1:2,000. For detection, goat anti-rat IgG or anti-rabbit IgG HRP-coupled secondary antibodies (Jackson ImmunoResearch) were used at a dilution of 1:15,000 in TBST/5% non-fat dry milk powder. […]

mScarlet-LRRK2 = molecular target: T2, mScarlet-LRRK2 (Homo sapiens, UniProt Q5S007, M2397T/R50H); test: Confocal microscopy of LRRK2 microtubule localization in HEK293 cells; assay type: cell-based; details: HEK293 cells co-transfected with mScarlet-LRRK2 and GFP-Nb, treated with 1 μM MLi-2
T2 construct: expressed in transfected cells; host or cells: HEK293
Description: HEK 293 cells were co-transfected with the indicated GFP-Nbs and mScarlet-LRRK2. […] Scale bar 5 μm.
FIG. 6. […] Scale bar 5 μm.
The binding of LRRK2 to microtubules subsequently reduces the kinesin—and dynein-mediated transport along microtubules.
Recent structural information has linked LRRK2 microtubule relocalization to the conformation of the kinase domain, with a closed conformation favoring LRRK2 binding to microtubules. As a consequence, the commonly used ATP-competitive type I LRRK2 inhibitors trigger this effect. In addition, it was shown before that the WD40 domain is indispensable for LRRK2-microtubule association.
A HEK293 cell line was cultured in complete media (high-glucose Dulbecco's modified Eagle's medium, 10% fetal bovine serum and Penicillin-Streptomycin-Glutamine (Gibco)). Cells were seeded on 8-well p-Slide(Ibidi) and transfected at a confluency of 50-70% with GFP-Nb and mScarlet-LRRK2 constructs, using JetPEI reagent (Polyplus transfection). […] Data acquisition was done with a ×100 oil-immersion objective with a Zeiss LSM800 confocal laser scanning microscope. Image analysis of z-scan was done using the Zeiss microscope software ZEN.

endogenous LRRK2 = molecular target: T3, endogenous LRRK2 (Mus musculus, UniProt Q5S006); test: Colocalization of GFP-Nbs with endogenous LRRK2 on zymosan-containing phagosomes in RAW264.7 cells; assay type: cell-based; details: RAW264.7 cells transfected with GFP-Nbs, zymosan 30 mins, fixed cells
T3 construct: endogenous in cells; host or cells: RAW264.7
Experimental: RAW264.7 cells were transfected with GFP-fused Nbs and treated with Zymosan for 30 mins. Recruitment of LRRK2 and Nbs to the phagosomes was analyzed by immunofluorescence. FIG. 16A, images for Nb38, Nb22, Nb23, Nb40, No Nb, or Irrelevant (IRR) Nb treatments; FIG. 16B, images for Nb36, Nb42, Nb17, Nb39, Nb1, and Nb6 treatments. Scale bar=10 μm.
(§1) To test whether Nbs can trace and visualize endogenous LRRK2 in fixed cells, we generated green fluorescent protein (GFP)-Nb fusions (fluobodies) as described before. Recently, it was shown that LRRK2 is recruited to phagosomes upon induction of phagocytosis in immune cells. Therefore, RAW264.7 cells were transfected with these fluobodies and treated with killed yeast bioparticles “zymosan” to induce phagocytosis.
(§2) RAW264.7 cells (ATCC® SC-6003™) were transfected with peGFP-Nb constructs using JetOPTIMUS (Polyplus transfection) for 24 hrs and then stimulated with Zymosan particles (Sigma Aldrich) for 30 mins ([…]). Immunostaining for LRRK2 was performed as reported before. Briefly, cells fixed with 4% (w/v) paraformaldehyde for 30 min, followed by treatment with 100% EtOH at −20° C. Sampled were permeabilized with PBS/0.5% Triton X-100 and blocked with 3% BSA. Primary antibodies (rabbit anti-LRRK2, c41-2, Abcam and mouse anti-GFP, G6539, Sigma Aldrich) were diluted in PBS containing 3% BSA and 0.5% Triton X-100 and incubated overnight at 4° C. After three 5-min washes with PBS, secondary fluorescently labeled antibodies (anti-rabbit-Alexa fluor 568 and anti-mouse-Alexa fluor 488, Invitrogen) were added in a similar manner to primary antibodies and incubated for 1 hour at room temperature. Cells were washed twice with 1×PBS and mounted with Fluroshield antifade reagent with DAPI (SigmaAldrich). Images were acquired on Zeiss LSM800 confocal laser scanning microscope. Image analysis of z-scan was done using the Zeiss microscope software ZEN.

[1] = molecular target: T4, endogenous mouse LRRK2 (RAW264.7 cells) (mouse, UniProt Q5S006 1-2527); test: immunofluorescence colocalisation of GFP-Nb and LRRK2 in RAW264.7 cells
T4 construct: also called endogenous LRRK2
Description: as §1
as §2, with “After three 5-min washes with PBS, secondary fluorescently labeled antibodies (anti-rabbit-Alexa fluor 568 and anti-mouse-Alexa fluor 488, Invitrogen) were added in a similar manner to primary antibodies and incubated for 1 hour at room temperature.” left out

T4 sequence (Q5S006 whole entry): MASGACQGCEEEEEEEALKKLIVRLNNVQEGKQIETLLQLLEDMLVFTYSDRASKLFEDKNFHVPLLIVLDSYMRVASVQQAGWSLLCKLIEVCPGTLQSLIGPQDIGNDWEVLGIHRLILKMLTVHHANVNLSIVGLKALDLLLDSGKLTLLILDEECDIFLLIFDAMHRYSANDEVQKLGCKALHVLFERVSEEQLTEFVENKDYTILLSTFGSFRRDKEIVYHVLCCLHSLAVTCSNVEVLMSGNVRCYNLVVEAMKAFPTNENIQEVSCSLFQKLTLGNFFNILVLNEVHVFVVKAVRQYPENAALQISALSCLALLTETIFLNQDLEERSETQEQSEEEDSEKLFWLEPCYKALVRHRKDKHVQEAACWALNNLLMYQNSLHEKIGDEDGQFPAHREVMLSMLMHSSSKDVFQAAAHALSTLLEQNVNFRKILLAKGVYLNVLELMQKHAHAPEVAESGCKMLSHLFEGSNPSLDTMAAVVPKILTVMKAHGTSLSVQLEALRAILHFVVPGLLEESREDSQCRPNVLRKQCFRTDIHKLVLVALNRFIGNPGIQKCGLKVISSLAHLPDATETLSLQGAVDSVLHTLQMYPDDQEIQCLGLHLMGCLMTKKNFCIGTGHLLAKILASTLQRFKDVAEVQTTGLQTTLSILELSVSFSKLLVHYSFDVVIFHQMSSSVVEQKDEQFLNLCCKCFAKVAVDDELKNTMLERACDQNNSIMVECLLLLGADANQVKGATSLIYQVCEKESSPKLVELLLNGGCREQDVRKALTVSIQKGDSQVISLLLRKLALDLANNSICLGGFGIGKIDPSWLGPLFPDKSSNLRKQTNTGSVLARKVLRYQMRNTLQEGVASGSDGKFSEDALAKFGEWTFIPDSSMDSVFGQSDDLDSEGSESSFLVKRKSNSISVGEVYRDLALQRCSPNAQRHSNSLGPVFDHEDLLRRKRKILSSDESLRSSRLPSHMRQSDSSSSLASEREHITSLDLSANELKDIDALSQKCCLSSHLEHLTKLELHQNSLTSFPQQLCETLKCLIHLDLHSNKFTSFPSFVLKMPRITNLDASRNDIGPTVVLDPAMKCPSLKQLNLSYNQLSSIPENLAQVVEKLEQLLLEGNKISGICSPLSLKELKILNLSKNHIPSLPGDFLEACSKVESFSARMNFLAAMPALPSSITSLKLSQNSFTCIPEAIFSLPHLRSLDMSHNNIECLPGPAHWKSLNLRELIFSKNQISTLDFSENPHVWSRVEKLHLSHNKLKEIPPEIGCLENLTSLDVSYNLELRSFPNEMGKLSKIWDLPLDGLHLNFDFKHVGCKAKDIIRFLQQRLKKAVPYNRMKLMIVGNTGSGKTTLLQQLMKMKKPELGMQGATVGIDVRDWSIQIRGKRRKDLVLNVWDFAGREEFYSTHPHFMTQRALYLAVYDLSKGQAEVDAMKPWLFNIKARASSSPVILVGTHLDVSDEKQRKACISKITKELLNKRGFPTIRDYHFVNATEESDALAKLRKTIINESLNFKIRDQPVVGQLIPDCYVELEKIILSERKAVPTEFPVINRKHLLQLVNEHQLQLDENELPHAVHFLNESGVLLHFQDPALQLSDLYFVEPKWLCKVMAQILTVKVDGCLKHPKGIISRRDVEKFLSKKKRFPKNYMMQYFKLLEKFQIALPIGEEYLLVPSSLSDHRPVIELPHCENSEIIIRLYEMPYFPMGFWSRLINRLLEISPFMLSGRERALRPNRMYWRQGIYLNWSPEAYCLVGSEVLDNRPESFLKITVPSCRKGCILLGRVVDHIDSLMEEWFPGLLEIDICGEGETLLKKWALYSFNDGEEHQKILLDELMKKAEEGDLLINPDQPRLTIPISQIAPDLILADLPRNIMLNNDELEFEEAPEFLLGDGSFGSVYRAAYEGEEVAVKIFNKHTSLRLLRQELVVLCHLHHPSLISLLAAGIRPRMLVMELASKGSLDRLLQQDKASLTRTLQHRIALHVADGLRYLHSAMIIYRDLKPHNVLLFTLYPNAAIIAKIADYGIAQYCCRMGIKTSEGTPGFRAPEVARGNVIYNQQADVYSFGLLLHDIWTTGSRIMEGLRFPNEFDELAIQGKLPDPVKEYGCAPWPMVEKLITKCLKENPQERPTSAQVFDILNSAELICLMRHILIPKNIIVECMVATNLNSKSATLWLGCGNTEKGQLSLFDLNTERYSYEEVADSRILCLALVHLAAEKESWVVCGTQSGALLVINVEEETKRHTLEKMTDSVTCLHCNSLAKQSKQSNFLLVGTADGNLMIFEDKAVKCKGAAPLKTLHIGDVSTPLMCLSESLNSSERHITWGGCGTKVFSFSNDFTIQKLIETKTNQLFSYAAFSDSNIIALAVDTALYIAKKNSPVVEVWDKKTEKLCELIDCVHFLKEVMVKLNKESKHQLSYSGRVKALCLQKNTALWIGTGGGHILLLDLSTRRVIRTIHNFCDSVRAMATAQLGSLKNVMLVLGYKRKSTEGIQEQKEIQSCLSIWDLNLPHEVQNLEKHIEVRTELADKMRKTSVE
T1 sequence (Q5S007 whole entry R50H/G2019S/M2397T): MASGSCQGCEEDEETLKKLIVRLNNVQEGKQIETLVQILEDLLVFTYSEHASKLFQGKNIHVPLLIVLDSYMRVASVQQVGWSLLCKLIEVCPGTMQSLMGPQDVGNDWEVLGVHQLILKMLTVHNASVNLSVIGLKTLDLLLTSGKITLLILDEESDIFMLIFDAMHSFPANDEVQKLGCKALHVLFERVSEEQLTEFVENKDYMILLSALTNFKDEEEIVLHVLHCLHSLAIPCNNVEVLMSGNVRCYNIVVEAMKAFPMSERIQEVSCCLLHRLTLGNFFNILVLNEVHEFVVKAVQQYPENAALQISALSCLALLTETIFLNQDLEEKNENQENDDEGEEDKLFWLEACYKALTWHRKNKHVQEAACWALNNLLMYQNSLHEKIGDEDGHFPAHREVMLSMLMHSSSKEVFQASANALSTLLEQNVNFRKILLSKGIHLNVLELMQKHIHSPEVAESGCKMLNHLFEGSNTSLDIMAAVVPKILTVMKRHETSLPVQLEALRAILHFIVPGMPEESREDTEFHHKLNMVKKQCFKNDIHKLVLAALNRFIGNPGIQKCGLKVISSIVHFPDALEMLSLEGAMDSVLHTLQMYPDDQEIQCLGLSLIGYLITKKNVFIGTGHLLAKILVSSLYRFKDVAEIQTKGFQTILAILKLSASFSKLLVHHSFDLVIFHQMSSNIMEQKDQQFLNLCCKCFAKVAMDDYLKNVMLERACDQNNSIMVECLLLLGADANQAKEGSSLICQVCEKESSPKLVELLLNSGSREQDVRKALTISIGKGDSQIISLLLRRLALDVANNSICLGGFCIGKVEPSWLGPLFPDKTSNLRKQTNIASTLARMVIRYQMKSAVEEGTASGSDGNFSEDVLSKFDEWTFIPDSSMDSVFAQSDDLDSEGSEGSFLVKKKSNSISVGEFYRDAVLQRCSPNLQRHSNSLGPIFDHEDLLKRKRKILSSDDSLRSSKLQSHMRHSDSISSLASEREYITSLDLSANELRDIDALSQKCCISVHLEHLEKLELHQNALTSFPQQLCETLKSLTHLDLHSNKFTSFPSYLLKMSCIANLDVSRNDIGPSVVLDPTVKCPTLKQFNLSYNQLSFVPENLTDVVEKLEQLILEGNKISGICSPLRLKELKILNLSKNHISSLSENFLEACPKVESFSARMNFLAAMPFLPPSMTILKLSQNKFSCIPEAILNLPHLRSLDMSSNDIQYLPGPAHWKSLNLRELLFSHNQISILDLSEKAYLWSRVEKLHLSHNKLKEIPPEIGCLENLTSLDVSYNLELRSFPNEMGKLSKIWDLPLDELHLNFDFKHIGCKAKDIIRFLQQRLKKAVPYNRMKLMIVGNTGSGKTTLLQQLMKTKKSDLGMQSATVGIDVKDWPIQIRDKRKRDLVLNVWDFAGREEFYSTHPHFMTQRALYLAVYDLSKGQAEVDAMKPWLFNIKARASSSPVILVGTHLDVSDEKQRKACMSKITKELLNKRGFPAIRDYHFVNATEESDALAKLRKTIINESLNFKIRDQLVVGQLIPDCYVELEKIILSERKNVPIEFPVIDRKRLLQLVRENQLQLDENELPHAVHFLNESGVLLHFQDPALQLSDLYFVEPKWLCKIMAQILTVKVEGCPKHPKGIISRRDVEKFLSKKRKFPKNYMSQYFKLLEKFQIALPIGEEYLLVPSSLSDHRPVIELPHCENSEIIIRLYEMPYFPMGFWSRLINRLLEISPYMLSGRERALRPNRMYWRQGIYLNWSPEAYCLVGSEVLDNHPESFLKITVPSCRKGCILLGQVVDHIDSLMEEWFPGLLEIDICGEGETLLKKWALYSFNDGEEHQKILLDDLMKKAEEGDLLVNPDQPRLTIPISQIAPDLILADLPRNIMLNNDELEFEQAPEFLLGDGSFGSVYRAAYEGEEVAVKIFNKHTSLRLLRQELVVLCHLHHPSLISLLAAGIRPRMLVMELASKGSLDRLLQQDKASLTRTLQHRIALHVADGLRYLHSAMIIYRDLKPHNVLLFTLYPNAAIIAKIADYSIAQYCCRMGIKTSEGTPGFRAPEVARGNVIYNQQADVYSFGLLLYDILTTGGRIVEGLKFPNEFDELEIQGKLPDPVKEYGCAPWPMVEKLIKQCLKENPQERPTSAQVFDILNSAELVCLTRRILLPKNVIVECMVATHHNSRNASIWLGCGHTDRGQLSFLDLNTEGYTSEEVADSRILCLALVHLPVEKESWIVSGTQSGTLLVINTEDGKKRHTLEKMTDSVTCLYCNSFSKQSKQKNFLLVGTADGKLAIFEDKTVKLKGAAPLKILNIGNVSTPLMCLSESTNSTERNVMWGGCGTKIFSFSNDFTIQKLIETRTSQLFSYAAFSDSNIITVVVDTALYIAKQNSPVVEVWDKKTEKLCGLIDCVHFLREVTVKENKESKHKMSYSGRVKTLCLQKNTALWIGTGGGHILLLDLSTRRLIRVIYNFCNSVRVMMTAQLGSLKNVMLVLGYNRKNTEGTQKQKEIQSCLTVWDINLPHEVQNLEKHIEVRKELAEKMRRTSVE
T3 sequence (Q5S006 whole entry): as the sequence (Q5S006 whole entry) above
T2 sequence (Q5S007 whole entry R50H/M2397T): as the sequence (Q5S007 whole entry R50H/G2019S/M2397T) above, with S2019G counted along it

Row | Functional Group (see FIG. 2d) (LRRK2(G2019S)) | Rab10 phosphorylation at position T72 (LRRK2(G2019S)) | effect on MLi-2-induced recruitment of LRRK2 to microtubules (mScarlet-LRRK2) | binding result [1] | Molecule | LRRK2 autophosphorylation at position S1292 (LRRK2(G2019S)) | influence on LRRK2 kinase activity compared to the controls (LRRK2(G2019S)) | colocalization with endogenous LRRK2 on phagosomes (endogenous LRRK2)
1 | Group 2 | inhibit Rab10 phosphorylation | rescuing effect is most prominent |  | Nb40: LRRK2-specific Nanobody, SEQ ID NO: 4 (protein, Nanobody CA14135) VHH: MAQVQLVESGGGLVQPGGSLRLSCVASGTIYAINRMGWYRQAPGKQRELVALITLGGGTNYGDSVKGRFTISRDNAKNTGYLQMNSLKPEDTAVYYCKVESSGYTDVFWGQGTQVTVSS | inhibiting S1292 phosphorylation at a lesser extent | strongly decreased LRRK2 autophosphorylation and/or Rab10 phosphorylation | clearly colocalized with LRRK2 on zymosan-containing phagosomes
2 |  |  |  | binds | Nb40 (CA14135)-GFP fusion (VHH, expressed in cells as intrabody; also called GFP-Nb40; fluobody Nb40; not shown: enhanced GFP fused to the C-terminus of the Nb (pEGFP-N1)) VHH: QVQLVESGGGLVQPGGSLRLSCVASGTIYAINRMGWYRQAPGKQRELVALITLGGGTNYGDSVKGRFTISRDNAKNTGYLQMNSLKPEDTAVYYCKVESSGYTDVFWGQGTQVTVSS |  |  | 
3 |  |  |  | binds | Nb38 (CA14133)-GFP fusion (VHH, expressed in cells as intrabody; also called GFP-Nb38; fluobody Nb38; not shown: enhanced GFP fused to the C-terminus of the Nb (pEGFP-N1)) VHH: QVQLVESGGGLVQPGGSLRLSCAASGSIRSIATSAWYRQPPGKQRELVAGISSGTTTNYADSVKGRFTISRDNAKNTVYLQMNSLKPEDTAVYYCHAWISGTWISGQGTQVTVSS |  |  | 

Second part, the molecule before the results:

Row | Molecule | Functional Group (see FIG. 2d) (LRRK2(G2019S)) | Rab10 phosphorylation at position T72 (LRRK2(G2019S)) | effect on MLi-2-induced recruitment of LRRK2 to microtubules (mScarlet-LRRK2) | binding result [1] | LRRK2 autophosphorylation at position S1292 (LRRK2(G2019S)) | influence on LRRK2 kinase activity compared to the controls (LRRK2(G2019S)) | colocalization with endogenous LRRK2 on phagosomes (endogenous LRRK2)
4 | Nb17: LRRK2-specific Nanobody, SEQ ID NO: 5 (protein, Nanobody CA13606) VHH: MAQVQLVESGGGLVQPGGSLRLSCAASGSNIGYMAWYRQAPGSQRELVARIASGGSANYADSVKGRFTISRDNVKNTVYLHMNSLKPVDTAVYYCHADAWYNSRWSDYWGQGTQVTVSS | Group 2 | inhibit Rab10 phosphorylation | rescuing effect is most prominent |  | inhibiting S1292 phosphorylation at a lesser extent | strongly decreased LRRK2 autophosphorylation and/or Rab10 phosphorylation | LRRK2 recruitment to phagosomes was slightly detectable
5 | Nb23 (CA13612)-GFP fusion (VHH, expressed in cells as intrabody; also called GFP-Nb23; fluobody Nb23; not shown: enhanced GFP fused to the C-terminus of the Nb (pEGFP-N1)) VHH: QVQLVESGGGLVQAGGSLRLSCAASGRTFSRYTMGWFRQAPGKDREFVARITTSGAVTTYADSAKGRFTISRDNAKNTVYLQMNTLKPEDTAVYYCAAGQGQLSSQSRFVDYWGQGTQVTVSS |  |  |  | binds |  |  | 
